Residue numbers refer to the chain shown, from its start.

T1: Q241A (Fc fusion, a disulfide-linked homodimer; one chain given.)
T1 construct: % monomer 97.6; also called MICA*008.mIgG2a Q241A
T1 chain: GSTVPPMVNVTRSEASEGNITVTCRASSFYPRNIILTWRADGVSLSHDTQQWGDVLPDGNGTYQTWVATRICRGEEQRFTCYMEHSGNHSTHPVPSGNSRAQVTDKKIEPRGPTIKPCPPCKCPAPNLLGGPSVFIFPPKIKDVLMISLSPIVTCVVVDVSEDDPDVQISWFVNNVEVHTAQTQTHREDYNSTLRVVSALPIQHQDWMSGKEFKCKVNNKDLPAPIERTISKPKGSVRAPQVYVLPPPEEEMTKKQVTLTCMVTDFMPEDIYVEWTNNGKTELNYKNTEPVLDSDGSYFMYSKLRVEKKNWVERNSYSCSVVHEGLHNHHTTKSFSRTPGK

T2: E276A
T2 construct: % monomer 86.14; also called MICA*008.mIgG2a E276A
T2 chain: T1 chain with A40Q, E75A

T3: E277A
T3 construct: % monomer 81.58; also called MICA*008.mIgG2a E277A
T3 chain: T1 chain with A40Q, E76A

T4: R279A
T4 construct: % monomer 95.2; also called MICA*008.mIgG2a R279A
T4 chain: T1 chain with A40Q, R78A

T5: H290A
T5 construct: % monomer 90.37; also called MICA*008.mIgG2a H290A
T5 chain: T1 chain with A40Q, H89A

T6: T292A
T6 construct: % monomer 80.56; also called MICA*008.mIgG2a T292A
T6 chain: T1 chain with A40Q, T91A

T7: P296A
T7 construct: % monomer 92.3; also called MICA*008.mIgG2a P296A
T7 chain: T1 chain with A40Q, P95A

B1: 2E5.2.3 Fab (Fab, V domains shown)
VH: QGQMQQSGAELVKPGASVKLSCKTSGFTFSDNYISWLKQKPGQSLEWIAWIYAGTGGTSYNQKFTAKAQLTVDTSSSTAYMQFSSLTTEDSAIYYCARHDYYGTSGAWFAYWGQGTLVTVSA
VL: DVLMTQTPLSLPVSLGDQASLSCRSSQNIVHINGNTYLEWYLQKPGQSPKLLIYKVSNRFSGVPDRFSGSGSGTDFTLKISRVEAEDLGVYYCFQGSHVPWTFGGGTKVEIK
B2: 6F8.7 Fab (Fab, V domains shown)
VH: DVQLQGSGPGLVKPSQSLSLTCSVTGYSITNDYYWNWIRQFPGNKLEWMGFISFGGSNNYNPSLKNRISITRDTSKNQFFLKLSSVTTEDTATYYCARYDGRGAWFAYWAQGTLVTVSA
VL: DIQMTQSPASLSASVGETVTITCRASGNIHNYLAWYQQKQGKSPQLLVYDAITLADGVPSRFSGSGSGTQYSLKINSLQPEDFGNYYCQHFWSFPLTFGAGTKVEIK
B3: 7D4.6 Fab (Fab, V domains shown)
VH: DVQLQESGPGLVKPSQSLSLTCTVTGYSITSDYAWNWIRQFPRNKLEWMGYINYSGTTNYNPSLKSRISITRDTSKNQFFLQLISVTTEDTATYYCSYYRYDGAWFPYWGQGTLVTVSA
VL: B2 VL with D50N, T53M, G64A, N85S
B4: 1D5 Fab (Fab, V domains shown)
VH: EIQLQQSGPELVKPGASVKVSCKASGYAFTSQNIYWVKQSHGKSLEWIGYIEPYNVVPMYNPKFKGKATLTVDKSSSSAYIHLNSLTSEDSAIYYCARSGSSNFDYWGQGTTLTVSS
VL: EIILTQSPTTMAASPGEKITITCSASSSISSHYLHWYQQKSGFSPKLLIYRTSNLASGVPARFSGSGSGTSYSLTIGTMEAEDVATYYCQQGSSLPLTFGAGTKVEIK
notes: Expressed in E. coli as chimera of murine variable and human constant domains; not shown: human IgG1 CH1 constant domain; human kappa CL constant domain

For the first assay, the target named is T1, Q241A. Put plainly: SPR, Fab over captured MICA*008.mIgG2a Ala variant; KD relative to wild type. (Surface plasmon resonance follows binding to a sensor surface in real time, without labels.)
On to B1, for which the fold-decrease in affinity turned out to be 1.1.

B2: the fold-decrease in affinity turned out to be 1.1.

Take B3: the fold-decrease in affinity came out at 0.4.

In a further assay the target is T2, E276A. The description is as above.
On to B1, for which the fold-decrease in affinity turned out to be 1.2.

Consider B4, for which the fold-decrease in affinity turned out to be 22.

For B2, the fold-decrease in affinity was determined as 4.3.

Take B3: the fold-decrease in affinity amounted to 0.7.

The next assay deals with T3, E277A. The description is as above.
On to B1, for which the fold-decrease in affinity was 1.1.

B4: the fold-decrease in affinity turned out to be 1.9.

For B2, the fold-decrease in affinity amounted to 2.7.

Consider B3, for which the fold-decrease in affinity is 1.3.

Another assay deals with T4, R279A. The assay is described as above.
B1: the fold-decrease in affinity is 0.8.

Consider B2, for which the fold-decrease in affinity turned out to be 4.5.

As for B3, the fold-decrease in affinity was determined as 5.1.

Another assay has as its target T5, H290A. The description is as above.
For B1, the fold-decrease in affinity worked out at 0.8.

As for B2, the fold-decrease in affinity was 8.4.

For B3, the fold-decrease in affinity was determined as 8.8.

The next assay concerns the target T6, T292A. The assay is described as above.
Regarding B1, the fold-decrease in affinity worked out at 1.3.

With B2, the fold-decrease in affinity is 1.7.

For the molecule B3, the fold-decrease in affinity turned out to be 2.1.

In a further assay the target is T7, P296A. The description is as above.
Consider B1, for which the fold-decrease in affinity stood at 0.6.

Regarding B4, the fold-decrease in affinity came out at 1.9.

Consider B2, for which the fold-decrease in affinity turned out to be 1.

As for B3, the fold-decrease in affinity amounted to 0.7.
